Data published in patent US20140087995A1 (published 2014).
Numbered stars: 1 amine (or outer) side, 2 acyl side, 3 side chain; on linkers, the order of the positions; unused ones are H or OH. Bridge positions count the residues as written; N and C are the ends. Side chains are listed from the residue outwards. Ends that are not written are not given here. * marks the point of attachment. C20 diacid = O=C(O)CCCCCCCCCCCCCCCCCCC(=O)*; γGlu = O=C(O)[C@H](CCC(=O)[*:2])N[*:1]; AEEA = NCCOCCOCC(=O)O

T1: human calcitonin receptor (human, UniProt P30988 25-474)
T1 construct: whole, on cells; Assay used cell membranes of the transfected BHK cells; also called hCTR; hCT
T1 sequence (looked up): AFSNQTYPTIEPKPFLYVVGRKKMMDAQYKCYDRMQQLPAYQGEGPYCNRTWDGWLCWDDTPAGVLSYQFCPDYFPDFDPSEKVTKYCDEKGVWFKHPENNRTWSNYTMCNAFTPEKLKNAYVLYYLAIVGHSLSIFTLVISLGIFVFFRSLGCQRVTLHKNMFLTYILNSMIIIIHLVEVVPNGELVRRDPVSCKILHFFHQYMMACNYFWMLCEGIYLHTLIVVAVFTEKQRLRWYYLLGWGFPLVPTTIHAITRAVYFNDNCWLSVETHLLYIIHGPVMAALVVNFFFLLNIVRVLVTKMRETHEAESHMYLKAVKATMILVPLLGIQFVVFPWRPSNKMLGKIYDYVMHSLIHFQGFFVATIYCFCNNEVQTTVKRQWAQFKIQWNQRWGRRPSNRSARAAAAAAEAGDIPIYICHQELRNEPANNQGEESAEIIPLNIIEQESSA

B1: N^ε1-[2-[2-[2-[[(4S)-4-carboxy-4-(19-carboxynonadecanoylamino)butanoyl]amino]ethoxy]ethoxy]acetyl]-[Arg17,Pro21,Pro27,Pro31,His35]-h-amylin (peptide)
peptide: K([AEEA-γGlu-C20 diacid])CNTATCATQRLANFLRHSSPNFGAIPSSTPVGSHTY-NH2
modifications: disulfide 2-7; N-terminus assumed
SMILES: CC[C@H](C)[C@H](NC(=O)[C@H](C)NC(=O)CNC(=O)[C@H](Cc1ccccc1)NC(=O)[C@H](CC(N)=O)NC(=O)[C@@H]1CCCN1C(=O)[C@H](CO)NC(=O)[C@H](CO)NC(=O)[C@H](Cc1c[nH]cn1)NC(=O)[C@H](CCCNC(=N)N)NC(=O)[C@H](CC(C)C)NC(=O)[C@H](Cc1ccccc1)NC(=O)[C@H](CC(N)=O)NC(=O)[C@H](C)NC(=O)[C@H](CC(C)C)NC(=O)[C@H](CCCNC(=N)N)NC(=O)[C@H](CCC(N)=O)NC(=O)[C@@H](NC(=O)[C@H](C)NC(=O)[C@@H]1CSSC[C@H](NC(=O)[C@@H](N)CCCCNC(=O)COCCOCCNC(=O)CC[C@H](NC(=O)CCCCCCCCCCCCCCCCCCC(=O)O)C(=O)O)C(=O)N[C@@H](CC(N)=O)C(=O)N[C@@H]([C@@H](C)O)C(=O)N[C@@H](C)C(=O)N[C@@H]([C@@H](C)O)C(=O)N1)[C@@H](C)O)C(=O)N1CCC[C@H]1C(=O)N[C@@H](CO)C(=O)N[C@@H](CO)C(=O)N[C@H](C(=O)N1CCC[C@H]1C(=O)N[C@H](C(=O)NCC(=O)N[C@@H](CO)C(=O)N[C@@H](Cc1c[nH]cn1)C(=O)N[C@H](C(=O)N[C@@H](Cc1ccc(O)cc1)C(N)=O)[C@@H](C)O)C(C)C)[C@@H](C)O
notes: Synthetic analogue; also called compound 57
B2: N^ε1-[(4S)-4-carboxy-4-(19-carboxynonadecanoylamino)butanoyl]-[Arg14,Arg17,Pro21,Pro27,Pro31]-h-amylin (peptide)
peptide: K([γGlu-C20 diacid])CNTATCATQRLARFLRHSSPNFGAIPSSTPVGSNTY-NH2
modifications: disulfide 2-7; N-terminus assumed
SMILES: CC[C@H](C)[C@H](NC(=O)[C@H](C)NC(=O)CNC(=O)[C@H](Cc1ccccc1)NC(=O)[C@H](CC(N)=O)NC(=O)[C@@H]1CCCN1C(=O)[C@H](CO)NC(=O)[C@H](CO)NC(=O)[C@H](Cc1c[nH]cn1)NC(=O)[C@H](CCCNC(=N)N)NC(=O)[C@H](CC(C)C)NC(=O)[C@H](Cc1ccccc1)NC(=O)[C@H](CCCNC(=N)N)NC(=O)[C@H](C)NC(=O)[C@H](CC(C)C)NC(=O)[C@H](CCCNC(=N)N)NC(=O)[C@H](CCC(N)=O)NC(=O)[C@@H](NC(=O)[C@H](C)NC(=O)[C@@H]1CSSC[C@H](NC(=O)[C@@H](N)CCCCNC(=O)CC[C@H](NC(=O)CCCCCCCCCCCCCCCCCCC(=O)O)C(=O)O)C(=O)N[C@@H](CC(N)=O)C(=O)N[C@@H]([C@@H](C)O)C(=O)N[C@@H](C)C(=O)N[C@@H]([C@@H](C)O)C(=O)N1)[C@@H](C)O)C(=O)N1CCC[C@H]1C(=O)N[C@@H](CO)C(=O)N[C@@H](CO)C(=O)N[C@H](C(=O)N1CCC[C@H]1C(=O)N[C@H](C(=O)NCC(=O)N[C@@H](CO)C(=O)N[C@@H](CC(N)=O)C(=O)N[C@H](C(=O)N[C@@H](Cc1ccc(O)cc1)C(N)=O)[C@@H](C)O)C(C)C)[C@@H](C)O
notes: Synthetic analogue; also called compound 63
B3: N^ε1-[2-[2-[2-[[(4S)-4-carboxy-4-(19-carboxynonadecanoylamino)butanoyl]amino]ethoxy]ethoxy]acetyl]-[Arg17,Pro21,Pro27,Pro34,His35]-h-amylin (peptide)
peptide: K([AEEA-γGlu-C20 diacid])CNTATCATQRLANFLRHSSPNFGAIPSSTNVGPHTY-NH2
modifications: disulfide 2-7; N-terminus assumed
SMILES: CC[C@H](C)[C@H](NC(=O)[C@H](C)NC(=O)CNC(=O)[C@H](Cc1ccccc1)NC(=O)[C@H](CC(N)=O)NC(=O)[C@@H]1CCCN1C(=O)[C@H](CO)NC(=O)[C@H](CO)NC(=O)[C@H](Cc1c[nH]cn1)NC(=O)[C@H](CCCNC(=N)N)NC(=O)[C@H](CC(C)C)NC(=O)[C@H](Cc1ccccc1)NC(=O)[C@H](CC(N)=O)NC(=O)[C@H](C)NC(=O)[C@H](CC(C)C)NC(=O)[C@H](CCCNC(=N)N)NC(=O)[C@H](CCC(N)=O)NC(=O)[C@@H](NC(=O)[C@H](C)NC(=O)[C@@H]1CSSC[C@H](NC(=O)[C@@H](N)CCCCNC(=O)COCCOCCNC(=O)CC[C@H](NC(=O)CCCCCCCCCCCCCCCCCCC(=O)O)C(=O)O)C(=O)N[C@@H](CC(N)=O)C(=O)N[C@@H]([C@@H](C)O)C(=O)N[C@@H](C)C(=O)N[C@@H]([C@@H](C)O)C(=O)N1)[C@@H](C)O)C(=O)N1CCC[C@H]1C(=O)N[C@@H](CO)C(=O)N[C@@H](CO)C(=O)N[C@H](C(=O)N[C@@H](CC(N)=O)C(=O)N[C@H](C(=O)NCC(=O)N1CCC[C@H]1C(=O)N[C@@H](Cc1c[nH]cn1)C(=O)N[C@H](C(=O)N[C@@H](Cc1ccc(O)cc1)C(N)=O)[C@@H](C)O)C(C)C)[C@@H](C)O
notes: Synthetic analogue; also called compound 58
B4: N^ε1-[(4S)-4-carboxy-4-(19-carboxynonadecanoylamino)butanoyl]-[Arg17,Pro21,Pro27,His35]-h-amylin (peptide)
peptide: K([γGlu-C20 diacid])CNTATCATQRLANFLRHSSPNFGAIPSSTNVGSHTY-NH2
modifications: disulfide 2-7; N-terminus assumed
SMILES: CC[C@H](C)[C@H](NC(=O)[C@H](C)NC(=O)CNC(=O)[C@H](Cc1ccccc1)NC(=O)[C@H](CC(N)=O)NC(=O)[C@@H]1CCCN1C(=O)[C@H](CO)NC(=O)[C@H](CO)NC(=O)[C@H](Cc1c[nH]cn1)NC(=O)[C@H](CCCNC(=N)N)NC(=O)[C@H](CC(C)C)NC(=O)[C@H](Cc1ccccc1)NC(=O)[C@H](CC(N)=O)NC(=O)[C@H](C)NC(=O)[C@H](CC(C)C)NC(=O)[C@H](CCCNC(=N)N)NC(=O)[C@H](CCC(N)=O)NC(=O)[C@@H](NC(=O)[C@H](C)NC(=O)[C@@H]1CSSC[C@H](NC(=O)[C@@H](N)CCCCNC(=O)CC[C@H](NC(=O)CCCCCCCCCCCCCCCCCCC(=O)O)C(=O)O)C(=O)N[C@@H](CC(N)=O)C(=O)N[C@@H]([C@@H](C)O)C(=O)N[C@@H](C)C(=O)N[C@@H]([C@@H](C)O)C(=O)N1)[C@@H](C)O)C(=O)N1CCC[C@H]1C(=O)N[C@@H](CO)C(=O)N[C@@H](CO)C(=O)N[C@H](C(=O)N[C@@H](CC(N)=O)C(=O)N[C@H](C(=O)NCC(=O)N[C@@H](CO)C(=O)N[C@@H](Cc1c[nH]cn1)C(=O)N[C@H](C(=O)N[C@@H](Cc1ccc(O)cc1)C(N)=O)[C@@H](C)O)C(C)C)[C@@H](C)O
notes: Synthetic analogue; also called compound 60
B5: N^ε1-[2-[2-[2-[[(4S)-4-carboxy-4-(19-carboxynonadecanoylamino)butanoyl]amino]ethoxy]ethoxy]acetyl]-[His14,Arg17,Pro21,Pro27,Pro31]-h-amylin (peptide)
peptide: K([AEEA-γGlu-C20 diacid])CNTATCATQRLAHFLRHSSPNFGAIPSSTPVGSNTY-NH2
modifications: disulfide 2-7; N-terminus assumed
SMILES: CC[C@H](C)[C@H](NC(=O)[C@H](C)NC(=O)CNC(=O)[C@H](Cc1ccccc1)NC(=O)[C@H](CC(N)=O)NC(=O)[C@@H]1CCCN1C(=O)[C@H](CO)NC(=O)[C@H](CO)NC(=O)[C@H](Cc1c[nH]cn1)NC(=O)[C@H](CCCNC(=N)N)NC(=O)[C@H](CC(C)C)NC(=O)[C@H](Cc1ccccc1)NC(=O)[C@H](Cc1c[nH]cn1)NC(=O)[C@H](C)NC(=O)[C@H](CC(C)C)NC(=O)[C@H](CCCNC(=N)N)NC(=O)[C@H](CCC(N)=O)NC(=O)[C@@H](NC(=O)[C@H](C)NC(=O)[C@@H]1CSSC[C@H](NC(=O)[C@@H](N)CCCCNC(=O)COCCOCCNC(=O)CC[C@H](NC(=O)CCCCCCCCCCCCCCCCCCC(=O)O)C(=O)O)C(=O)N[C@@H](CC(N)=O)C(=O)N[C@@H]([C@@H](C)O)C(=O)N[C@@H](C)C(=O)N[C@@H]([C@@H](C)O)C(=O)N1)[C@@H](C)O)C(=O)N1CCC[C@H]1C(=O)N[C@@H](CO)C(=O)N[C@@H](CO)C(=O)N[C@H](C(=O)N1CCC[C@H]1C(=O)N[C@H](C(=O)NCC(=O)N[C@@H](CO)C(=O)N[C@@H](CC(N)=O)C(=O)N[C@H](C(=O)N[C@@H](Cc1ccc(O)cc1)C(N)=O)[C@@H](C)O)C(C)C)[C@@H](C)O
notes: Synthetic analogue; also called compound 61
B6: N^ε1-[2-[2-[2-[[(4S)-4-carboxy-4-(19-carboxynonadecanoylamino)butanoyl]amino]ethoxy]ethoxy]acetyl]-[Arg17,Pro21,Pro27,Pro34]-h-amylin (peptide)
peptide: K([AEEA-γGlu-C20 diacid])CNTATCATQRLANFLRHSSPNFGAIPSSTNVGPNTY-NH2
modifications: disulfide 2-7; N-terminus assumed
SMILES: CC[C@H](C)[C@H](NC(=O)[C@H](C)NC(=O)CNC(=O)[C@H](Cc1ccccc1)NC(=O)[C@H](CC(N)=O)NC(=O)[C@@H]1CCCN1C(=O)[C@H](CO)NC(=O)[C@H](CO)NC(=O)[C@H](Cc1c[nH]cn1)NC(=O)[C@H](CCCNC(=N)N)NC(=O)[C@H](CC(C)C)NC(=O)[C@H](Cc1ccccc1)NC(=O)[C@H](CC(N)=O)NC(=O)[C@H](C)NC(=O)[C@H](CC(C)C)NC(=O)[C@H](CCCNC(=N)N)NC(=O)[C@H](CCC(N)=O)NC(=O)[C@@H](NC(=O)[C@H](C)NC(=O)[C@@H]1CSSC[C@H](NC(=O)[C@@H](N)CCCCNC(=O)COCCOCCNC(=O)CC[C@H](NC(=O)CCCCCCCCCCCCCCCCCCC(=O)O)C(=O)O)C(=O)N[C@@H](CC(N)=O)C(=O)N[C@@H]([C@@H](C)O)C(=O)N[C@@H](C)C(=O)N[C@@H]([C@@H](C)O)C(=O)N1)[C@@H](C)O)C(=O)N1CCC[C@H]1C(=O)N[C@@H](CO)C(=O)N[C@@H](CO)C(=O)N[C@H](C(=O)N[C@@H](CC(N)=O)C(=O)N[C@H](C(=O)NCC(=O)N1CCC[C@H]1C(=O)N[C@@H](CC(N)=O)C(=O)N[C@H](C(=O)N[C@@H](Cc1ccc(O)cc1)C(N)=O)[C@@H](C)O)C(C)C)[C@@H](C)O
notes: Synthetic analogue; also called compound 50

Molecular target: T1, human calcitonin receptor
Experiment: SPA radioligand competition (125I-calcitonin), membranes of BHK cells with human calcitonin receptor
Procedure, shortened: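 BHK hCTR membranes 35 ng/μL + SPA beads 0.05 mg/well; buffer 50 mM Hepes pH 7.4, 1 mM CaCl2, 5 mM MgCl₂, 0.1% OA, 0.02% Tween20. 120 min, 25° C., shaking. Scintillation count; IC50 by one-site binding competition.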

Row | Binder | IC50 [nM]
1 | B1 | 15.3
2 | B2 | 130
3 | B3 | 9.63
4 | B4 | 31.4
5 | B5 | 8.11
6 | B6 | 1.38
